Test results published in a protein production outcome set (Wang et al. 2014).

Assay: label from the status in PepcDB records

| Sequence | protein production |
| --- | --- |
| MSLSTIRIGGAAVNQTPIDWENNVKNILDAIEEAKNANVEILCLPELCITGYGCEDLFLTDWVAETAIEYCFEIAASCTDITVSLGLPMRIAGITYNCVCLVENGIVKGFSAKQFLANEGVHYETRWFTAWPRNHTTTFLYNDVKYPFGDVLYNVKDARIGFEICEDAWRTDRVGIRHYEKGATLVLNPSASHFAFGKSAIRYDLVIGGSERFDCTYVYANLLGNEAGRMIYDGEVLIAHKGKLIQRNDRLSFKNVNLIYADIATDSAETPETVLTQDDLEKEFEFWEATSLGLFDYMRKSRSKGFVLSLSGGADSSACAIMVAEMIRKGLKELGLTAFLQKSNMETLFDLPALQHLPFEEQAKKITAVFLTTAYQSTRNSGDETYTSAKTLAESIGATFYNWSVDEEIEQYKATIENVIERPLTWEKDDITLQNIQARGRAPIIWMLTNVKQALLITTSNRSEGDVGYATMDGDTAGGIAPIAGVDKDFIRSWLRWAEKNRNQHGLHIVNKLAPTAELRPSEYTQTDERDLMPYDVLARIERKAIKERLSPVQVYTALLTEGPYTKNEFKYWVKKFFRLWSINQWKRERLAPSFHMDDFNIDPRSWYRFPILSSGFAKELNDLDQEGHHHHHH | not failed |
| MPDIAVLVKASLNPDMARIGPDDSVDLNSIPLKISDIDRNAVEEAVKLKEKLGGKLYAVSVLTWGPVKLRNKDLRLAVQEALAKGVDEAIVVADDELTPGDQTTTAKAIKAALEKHGVKPELILAGEATIDEVTSQVPGRLASLLGYKYLSFVRKLDVDNGRIIAERDLEDYIEVVEASLPAVVSVTQEINEPRPPTLLQIRRAARKPVKEYSASELENVGKPVRRIVQIRGVQVKRKQQIIEGDNLEEIAEKLIEALAREGVLKL | failed |
| MLEIIQKTLTDNAIIGAIFSSIAIIFLGFYIRKRNILTGAASKILTKVVLTVAIPALAFTSFMKDINQKELHEGINILIWGFVIYILLIVLTKFIFARVKGDKQDVFRVLTIFGSTTFFGVPIVKAVYGSVGAMYSSIFNIAYRVFLYSYGYIKMSGVKMDKENLKKNLKEMLLNPVIIATFLGLFIWLFQGMLPQVQIGDKSYAFLRIDQTLPWLYKPLTYLDKLCSPLAWLAIGITLAEVPFKQAVGQKEPWVYSLIKIILVPVINLGLLVVLNKTGILPVSFEGMATTVIMLATPTATVAAAYAISFDKEALLTSNCSLLSTVVAVVAMPFWIVILQIIKNIGLFA | failed |
| MKLALFDLDHTLLNTDSDHSWGEFLVNEGLVDPVHHRQMNDKFYEDYKAGQLDPIAYNEFVFEFLTQNTPEVLTDLHALFMQKVIRPQMRPKGFDGIKKHQNLGHDIVGITATSDFITAPIFRAFGITEIIATNAEVQDGKYTGKVAGLPCYQKGKLARLDQWLAGRSVEESWAYSDSINDRFLLEYATHAIAVNPDDRLEKLAIDQGWTIEDWSI | failed |
| MSQQFPDWQPQGLENNLLKLVPLAKADFDTLFEVASDPLIWEQHPTKDRYKKEVFQLFFDGALGGNTAFIIIDKATGRIIGSTRYYDYKPEQASIAIGYTFLNRDYWGGRYNRSAKKLLLDYAFHYVDTVYFHIGANNLRSQKAILNIGATKVGEVDFDYYGKKVLHYEYAITKADWLHTLKQQL | failed |
| MEEKNGSSEVEIGEKDETKKQSKDLEFLSCMMQPKTADSDPHYIGIRRILLHRKADSGVISRRYDWRCNGKGYVAYRNFISKPRKWENLRTPSLLSSPGNSGRWLPSPSPLSHQFEAESFTSSRDLRSVNQVSSRRASFSSSLSDGDNSYRRGGVEHAYSFVGMHCIFDQCKSSVTVLKFGHMSSDILAYGASDGSLTVCSLLEEPSVLKQLTGHSKDVTDFDFSSNNQYIASSSLDKTIRVWELSRGVCIRVIYGISPQYCIRFHPVNNNFLSAGNANKELTVFNFSTGRIIKKLLFEDEVTSMDHDHTGQIIFCGDGQGTVYSVSMDSHTGSLSRSHRHRTNHKSPVTTVKYRSFSLLASGPVLLTCTQDGNLSFFSVALQIKGYLTLRCSLKLAPRIHRIQASFCPLLSLEKGEYIVAGSEDSNVYFYDLTKPKHTCVNKLQGHRFPVMCVAWNHGENLLASSDFYGVVIVWKRAKTSS | failed |
| MLSMVEVKIIKSDGFFNEVLISSDKKIHFDTAYAEGDFNCFGEGSIVSETTDDLKFKIANLIPGKYHFKIAIDQYKILREAENRSGSYSFSIWLEKPYHNPDYAQFCAIIDKKLMDVRIAVPKHSISVSIFTKDTLKPVYSRRASFDTFDAVEYVFDGMSDYYFEVDNSRLPKEGYFSPKVHIEHEGGSKIIYHIFPDRFFRVGPHLPTLSRWGDKPTFSSFFGGNLRGITEKIGYIKALNVDTIYLNPVYKSKSNHRYDVDDYFSIDGLLGGEQDFIELVNEAHENGIKIVADMVFNHTSTDFPYFLDALKNGKNSKYWNWYIFHGEGAAVFDGRAKGKTKPLYETFMGVGRMPKLNHKNAEVRKFCIDVMKYYKNKFGVDGFRYDVAHSIYPEFFLEAVKEFGNEMLHIGEAWCLPSMFMLSGYWNSFTNYYLRNAIIKFVREEINITEFYNMIQNMIISYGPLIQQNVMNILDSHDTERILRAFKGNKKKVKLAYSILFMFDGFATIYYGDEVGLDGGRDPDDRRCFPWDNMDEDMLQFLKKLGEIRRMYHTGSAGIITVEETQECKYITRLSGESIIKVAIAKKPVTLEGEIILSSCGEKTIYEGDFALSIAKYA | failed |
| AGNRASNQGNSQPQQKYTVMSGTPEKILEHFLETIRLEATLNEATDSVLNDFIMMHCVFMPNTQLCPALVAHYHAQPSQGTEQEKMDYALNNKRRVIRLVLQWAAMYGDLLQEDDVSMAFLEEFYVSVSDDARM | failed |
| KPIPLAVIVVLGCFALGLGGIIGFVHKGEDYQAYQKLQWHTLAPEKIAPLVAQGYTVFVDITSDWCSICQTNKAEVTHREQVVNALMADDIILMQGNWSEADNTIAGYMQYEGIPGTPYNKIYGPRNPNGIVLPSKLTIEAVINGLAQAKAL | failed |
| MHYPVLVNPRKPSLSRMPMKKPKRASAAKAKKGRKISASRSKPATKRPAKPPRRGASLDGTKDSAKIIRGLRSKLKAAERRVAELEAAADTDFLLEIPNRRGFERELTRAIAYMKRYRATGALIVLDVDRLKPINDSFGHAAGDEVLKAIVGALTRQVRASDVVGRLGGDEFALLLWNLNETDAKAKAAAFEQTIDELSFVFRSQNVTAGASAGVALLGAHSDAGRALEEADAAMYVRKARRRHEPRIRLVSN | failed |
| MLQHRCPVRRILVHYIAHWSRLRSILPTFAAIVRRPFRVCKTMNQPSSKPTPAVTFRLSKAELVLVFITMLWGGTFLLVHNVMTVSGPMFFVGLRFAAAALFVGVVSARALPGLTFTELKAGMLIGVSIMLGYGLQTMGLQTISSSQSAFITALYVPFVPLLQWLVLGRRPGLMPSMGICLAFIGLMLLAGPEGGSLRFSEGELVTLISAVAIAGEIILISRYAGQVDVRRVTVVQLATASLLAFLMIVPTQERIPDFSWLLLASAVGLGAMSAVIQVAMNWAQKSVSPTRATLIYAGEPVWAGIVGRLAGERLPGVALLGGLLIVVAVVVSELKVRRPRETVETRDVQNPGERQAGL | failed |
| MGIEMSLKDIINSNRPSESRQLACALTFCGGFIDAYTYIQRGHTLSAGQTGNVIFFSSALADHNIPGMINRASTFIAFSLGLLLVGLFHKYVKSHYWRVFCLFPILVICIVVGFLPKSVPNYYIVPAIAFGLAVQNASFSKIEGMGYNNVFTTGNLKKSVVAWSAFFFGEDKSKYTAAVNYMMLVISFGLGAIVSALLQKIWVLKTIWIAVIFLAIINCIYIIAIRKHKKLDLSGKNDA | failed |
| MTKKVMIKGDIVDDQTAGFYQFFGMPAVSPSGVADILNDDSGDDDDDGDDEALEVDIASNGGDVFAASEIYTMLKNYAGNVTVNIQGLAASAASVIAMAGDHINISPTAQIMIHKAWSQPAGNADDLEHEASVLNGIDQSIASAYEAKTGMDQADLLQLMANETWLTASDAVDKGFADEIMFANDQQLQPVNAISHIPPKSAVNKLMNLIYKADKDKAKPSKKENTTNGQSAELRNSKLAILFEKNQKEAN | failed |
| MRVSMTLFRSKENHRMLNNFAKLNGGDDVRMGADVPADALVDRLLVGFFYGPSDRLPEVLHVSNQLVRTKESYPFLPFCASQSHIWKPGDPLRHLEPFTLNPWCIIPYVNPRSQDFPFPELNEIKSQQLYFDHLLGIKKLPTMTLDVPKSHHFQPKLSRLKTHHNFPYLADFVIKVPTTIFSFIVAISLLL | failed |
| IRHEITSRTSVSVLVNRCNWFCTSPKCSGLTVMGCLCVAMSVAKKDKPTMSVTALINWARPLPPGQQQQPMTPTSPGNMLQPMATPSNLPTVDCSLDIQWLNLEGGFMSPMSPPEMKPDTAMLDGLRDDSTPPPAFKNYPPNHPLSGSKHLCSICGDRASGKHYGVYSCEGCKGFFKRTVRKDLTYACREERNCIIDKRQRNRCQYCRYQKCLACGMKREAVQEERQRAARGTEDAHPSSSVQVQELSIERLLEMESLVADPSEEFQFLRVGPDSNVPPKFRAPVSSLCQIGNKQIAALVVWARDIPHFSQLEMEDQILLIKGSWNELLLFAIAWRSMEFLTEERDGVDGTGNRTTSPPQLMCLMPGMTLHRNSALQAGVGQIFDRVLSELSLKMRTLRVDQAEYVALKAIILLNPDVKGLKNRQEVEVLREKMFLCLDEYCRRSRSSEEGRFAALLLRLPALRSISLKSFEHLFFFHLVADTSIAGYIRDALRNHAPPIDTNMM | not failed |
| MPDINESMLNQFRPVIRRFIDPIADRIALPADYITLTGFLVACAASAGYASGSLITGAALLAASGFIDVLDGAVARRRFRPTAFGGFLDSTLDRLSDGIIIIGITAGGFTGLLTGLLALHSGLMVSYVRARAESLGIECAVGIAERAERIIIILAGSLAGYLIHPWFMDAAIIVLAALGYFTMIQRMIYVWQRLK | failed |
| MQRYETTSVQNITQQYVHWFRHSAPYINAHRNKTLVLMFGGEAVQHPNFQHIIHDIALLHSLGIRLILVHGARPQINQNLQEKQIETPIHLHRRVTTRESLACVMNAVGSIRLEIEALLSMGLANSPMFGARIDVVSGNFVTAKPYGIRDGVDFQLTGEVRAIDTDAIQRHLDNHNIVVLGPTGYSTTGEVFNLLAEEVATKTATALHADKLIFLGKKQGLLSDQGKLLRELTPQQLEPYIKHFQQLDHEMALHLQGAQTASLSGVHRVHLISYAYDGALIEELFTRDGIGTMITDAHYEDVRTATIQDVGGLINLLRPLEEEGILVYRSRERLESEISQFAVIERDGMILACAALYPIPTAKNEIRSAEIACVAVDPAYRKSNRGSQILHFLEEKARQEGILQLFVLTTRTAHWFLEHGFQTASVDDLPSARQELYNYQRNSLVFKKILM | failed |
| MLQIIVPMAGAGSRFAVAGYTDPKPLIPVHGVPMIKVVIDNLTPDCPHRFIFICQAEQVAAYGLREKLNAWAPGCGIVELGGLTGGAACTVYAARHLINYDQQVMIANSDQYVDVDINAYLHAMNECDAAGLIMTMKASDPKWSFVGFDSQGHINRVVEKEVISDEATVGIYNFRSGGQLVSAIEAMVLKDLRVNGEFYVAPAYNELIEQGAKVIHYSIGAEGHGMYGLGIPVDLNLFLSLPLSRQAASGVGNLEHHHHHH | failed |
| MDVLIHLFVGLHIIGIAALLGGFLTQMKAMGRGTARFVPGMLHGALTMLVTGVALVGLNQADDHSVNTIKIGVKLALLIVILGLVYVKRDEEQVDKGLFGLVGLLTTANIFIAVLWT | failed |
| MIGFIGSVFSPWYRWSGRKEPQNHCCLNVATYGPGGRFTMTDRGRAALRQSPDTLTVGPSRMHWTGTQLIVEVNEISSPPLVSPVKGRIVLTPTGITDVEVTLKDDGSHIWRPFAPTARIEVDLTQGHRWHGHGYFDANFGTAALEADFRFWTWGRYPVADGAACFYDATRRDGSRLELGLHVAADGRARLIQPPPEARFARSRWLVERHTPADPGTRPRQVMSMLDAPFYSRAMVETTVFGQKTVGVHEALDLRRFRSPLLMPMLAVRVPRRP | failed |
